Where “and” joins values, the source holds several entries; their conditions need not be identical. Identical values can stand only once. *1 amine or outer side, *2 acyl side, *3 side chain or, on linkers, in order; H or OH if unused. Bridges are numbered along the chain shown (N, C = ends). Roman numbers before positions name the chains, in order. Where no end group is shown, it is not given here. [ ]: non-standard residue; d: D form. branched linker from compound 8 (carries γGlu-hexadecanedioic acid) = not defined here; d(γGlu) = O=C(O)[C@@H](CCC(=O)[*:2])N[*:1]; Bip = N[C@@H](Cc1ccc(-c2ccccc2)cc1)C(=O)O; PEG8 = NCCOCCOCCOCCOCCOCCOCCOCCOCCC(=O)O; NMeF = CN[C@@H](Cc1ccccc1)C(=O)O; Ahp(2) = CCCCC[C@H](N)C(=O)O
Columns and labels:
CD38 (human) = CD38 (human) (UniProt P28907); assay: ELISA; larger values represent binding
CD38 [1] = target: T1, CD38 (human, UniProt P28907 43-300, limits assumed); assay: ELISA; larger values represent binding
T1 construct: also called cluster of differentiation 38; cyclic ADP ribose hydrolase

CD38 [2] = target: T2, CD38 (human, UniProt P28907 1-300); assay: ternary binding, flow cytometry: PE-labelled human IgG1k recruited to Daudi cells
T2 construct: whole, on cells; also called cluster of differentiation 38; cyclic ADP ribose hydrolase
Protocol: Various technologies can be utilized to assess and/or characterize recruitment of antibodies to target cells, e.g., cancer cells. One such assay is a ternary binding assay. An exemplary protocol is described herein. Compounds were diluted in DMSO (MP 191418) to 1000× the starting concentration used in the assay into a 96 well polypropylene plate (Corning 3357). They were then serially diluted in ½ log increments to generate 8-12 concentrations in DMSO (assay dependent). These DMSO stocks were then step diluted 1/100 into PBS (VWR Cat. #20012043). Step diluted compound range was then added into the polypropylene assay plate 1/10 the volume of the assay volume. […] The cells were then added into the polypropylene plate with the step diluted compounds and incubated at 37° C. for 30 min. At the end of the incubation, the cells were centrifuged and washed 2× with How buffer containing 0.5% Tween 20 (BP337-500). Samples were analyzed on a BD FacsCelesta. Mean fluorescence was analyzed using Graphpad Prism and curves were fit using log(inhibitor) vs. response—Variable slope (four parameters).

[3] = target: CD38 on Daudi cells (ATCC CCL-213) (human) (UniProt P28907); assay: cell-based or functional assay
[4] = target: CD38 on Daudi cells (human) (UniProt P28907); assay: ternary binding, flow cytometry: Daudi cells + PE human IgG1k
CD38 [5] = target: T2, CD38; assay: cell-based or functional assay
CD38 [6] = target: T2, CD38; assay: cell-based or functional assay; remark: listed apart in the source

Ala Leu His MePhe Val Leu Pro Bph Val Trp Val Cys (SEQ ID NO.2) (peptide)
Binding Assay (ELISA signal) (CD38 (human)): 1.69

Ala Arg Ahp Tyr His Asp Gly Val Leu Bph Ahp Asp Cys (SEQ ID NO.1) (peptide)
Binding Assay (ELISA signal) (CD38 (human)): 1.97

B1: A L H MeF V L A Bph V W V C (peptide)
peptide: ALH[NMeF]VLA[Bip]VWVC
modifications: not fully specified (N-terminus, bridges); printed as A L H MeF V L A Bph V W V C
notes: Alanine variant at position 7
Binding Assay (ELISA signal) (CD38 [1]): 0.11

B2: I-33 (peptide)
peptide 1: ARXYHDGVLXXDC
peptide 2: DCAWHLGELVWCT
modifications: Cys2-Cys12 disulfide; N-terminus extended by PEG8-; X3 and X11 = Ahp ((S)-2-aminoheptanoic acid), X10 = Bph (4-biphenylylalanine); N-terminal -C(O)CH2- (from 2-bromoacetic acid) thioether-linked to S of Cys13; C-terminus carries PEG8 linker
IC50 (CD38 [2]): 9.3 nM
% dead cells at 10 nM [3]: 23.4% and 22.3%
% dead cells at 30 nM [3]: 28.7% and 28.8%
% dead cells at 100 nM [3]: 32.8% and 31.3%
% dead cells at 300 nM [3]: 31.9% and 31.6%
% dead cells at 1000 nM [3]: 22.6% and 23.3%
% dead cells at 3000 nM [3]: 16.6%
EC50 (nM), killing of target cells [3]: 11 nM
MFI at 1 nM [4]: 3470 and 3690
MFI at 3 nM [4]: 3660 and 1850
MFI at 10 nM [4]: 21100 and 13600
MFI at 30 nM [4]: 23700
MFI at 100 nM [4]: 31900 and 24200
MFI at 300 nM [4]: 24100 and 34300
MFI at 1000 nM [4]: 17400 and 22200
MFI at 3000 nM [4]: 28400 and 12400
EC50 (nM), ADCC reporter cells (CD38 [5]): 4.3 nM

B3: A L H MeF V L P Bph V W A C (peptide)
peptide: ALH[NMeF]VLP[Bip]VWAC
modifications: not fully specified (N-terminus, bridges); printed as A L H MeF V L P Bph V W A C
notes: Alanine variant at position 11
Binding Assay (ELISA signal) (CD38 [1]): 0.41

B4: I-32 (peptide)
peptide 1: {‑C(O)CH2‑}-AR[Ahp(2)]YHDGVL[Bip][Ahp(2)]DC-{branched linker from compound 8 (carries γGlu-hexadecanedioic acid)}
peptide 2: DDCAWHLGELVWCT-NH2
modifications: disulfide II:3-II:13; not fully specified (N-terminus); reading uncertain; also: N-terminus of chain 2 amide-bonded to the branched linker (one conjugate), thioether at chain A 13 to a chain's N-terminus via -C(O)-CH2- (from 2-bromoacetic acid)
notes: One covalent conjugate
IC50 (CD38 [2]): 88 nM
RLU at 100 nM (CD38 [6]): 21800 RLU
% dead cells at 1 nM [3]: 14.4% and 13.5%
% dead cells at 3 nM [3]: 12.8% and 13.5%
% dead cells at 10 nM [3]: 13% and 13.3%
% dead cells at 30 nM [3]: 14.7% and 14.3%
% dead cells at 100 nM [3]: 17.7% and 17.2%
% dead cells at 300 nM [3]: 19.5% and 20.1%
% dead cells at 1000 nM [3]: 19.7% and 20.4%
% dead cells at 3000 nM [3]: 16.9% and 16.8%
MFI at 0.3 nM [4]: 1990 and 1770
MFI at 1 nM [4]: 2310 and 1770
MFI at 3 nM [4]: 1690 and 1630
MFI at 10 nM [4]: 2890 and 1820
MFI at 30 nM [4]: 4350 and 2820
MFI at 100 nM [4]: 13800 and 19500
MFI at 300 nM [4]: 26600 and 20600
MFI at 1000 nM [4]: 28500 and 32400
MFI at 3000 nM [4]: 23000 and 26100
EC50 (nM), ADCC reporter cells (CD38 [5]): 63 nM

B5: A L H MeF A L P Bph V W V C (peptide)
peptide: ALH[NMeF]ALP[Bip]VWVC
modifications: not fully specified (N-terminus, bridges); printed as A L H MeF A L P Bph V W V C
notes: Alanine variant at position 5
Binding Assay (ELISA signal) (CD38 [1]): 0.47

B6: A L H MeF V L P Bph V A V C (peptide)
peptide: ALH[NMeF]VLP[Bip]VAVC
modifications: not fully specified (N-terminus, bridges); printed as A L H MeF V L P Bph V A V C
notes: Alanine variant at position 10
Binding Assay (ELISA signal) (CD38 [1]): 0.1

B7: A L H MeF V L P Bph A W V C (peptide)
peptide: ALH[NMeF]VLP[Bip]AWVC
modifications: not fully specified (N-terminus, bridges); printed as A L H MeF V L P Bph A W V C
notes: Alanine variant at position 9
Binding Assay (ELISA signal) (CD38 [1]): 0.12

ALHAVLP[Bip]VWVC (not fully specified (N-terminus, bridges); printed as A L H A V L P Bph V W V C, Alanine variant at position 4) [A L H A V L P Bph V W V C]
Binding Assay (ELISA signal) (CD38 [1]): 0.1

B8: A L H MeF V A P Bph V W V C (peptide)
peptide: ALH[NMeF]VAP[Bip]VWVC
modifications: not fully specified (N-terminus, bridges); printed as A L H MeF V A P Bph V W V C
notes: Alanine variant at position 6
Binding Assay (ELISA signal) (CD38 [1]): 0.09

B9: I-28 (peptide)
peptide 1: {‑C(O)CH2‑}-AR[Ahp(2)]YHDGVL[Bip][Ahp(2)]DC-{PEG8-d(γGlu)-d(γGlu)-D‑Glu(side chain amide of 12-aminododecanoic acid)-d(γGlu)-d(γGlu)-Gly-Gly}
peptide 2: DCAWHLGELVWCT
modifications: disulfide II:2-II:12; also: chain 2 joined to the end of the chain 1 linker, thioether at chain A 13 to a chain's N-terminus
EC50 (nM), ADCC reporter cells (CD38 [5]): 14 nM

B10: I-39 (peptide)
peptide 1: ARXYHDGVLXXDC
peptide 2: DCAWHLGELVWCT
modifications: Cys2-Cys12 disulfide; N-terminus extended by hydrazinecarbonyl (urea from Boc-NH-NH2 and CDI)-PEG6-; X3 and X11 = Ahp ((S)-2-aminoheptanoic acid), X10 = Bph (4-biphenylylalanine); N-terminal -C(O)CH2- (from 2-bromoacetic acid) thioether-linked to S of Cys13; C-terminus carries PEG10 linker
IC50 (CD38 [2]): 3.3 nM
% dead cells at 0.03 nM [3]: 11%
% dead cells at 0.3 nM [3]: 11.9% and 12.1%
% dead cells at 1 nM [3]: 15.7% and 16.5%
% dead cells at 3 nM [3]: 17.7% and 15.9%
% dead cells at 10 nM [3]: 22.4% and 21.4%
% dead cells at 30 nM [3]: 22.7% and 22.2%
% dead cells at 100 nM [3]: 23.4% and 25.4%
% dead cells at 300 nM [3]: 21.3% and 21.5%
MFI at 0.03 nM [4]: 5280 and 4130
MFI at 0.1 nM [4]: 6760 and 4610
MFI at 1 nM [4]: 4580 and 5160
MFI at 3 nM [4]: 6080 and 8740
MFI at 10 nM [4]: 5300 and 7840
MFI at 30 nM [4]: 9350 and 9460
MFI at 100 nM [4]: 16400 and 17300
MFI at 300 nM [4]: 12200 and 16900
MFI at 1000 nM [4]: 9710 and 12000
MFI at 3000 nM [4]: 10100 and 15000
EC50 (nM), ADCC reporter cells (CD38 [5]): 0.61 nM

B11: I-40 (peptide)
peptide 1: Ac-AR[Ahp(2)]YHDGVL[Bip][Ahp(2)]DCG
peptide 2: GDCAWHLGELVWCT-NH2
modifications: disulfide II:3-II:13; also: C-terminal Gly of chain 1 amide-bonded to N-terminal Gly of chain 2 (one chain), thioether at chain A 13 to a chain's N-terminus
notes: The section is headed I-40, its product is called compound 523; also called compound 523
IC50 (CD38 [2]): 50 nM
EC50 (nM), killing of target cells [3]: 1.9 nM
MFI at 0.03 nM [4]: 819 and 477
MFI at 0.1 nM [4]: 956 and 1170
MFI at 0.3 nM [4]: 1150 and 1290
MFI at 1 nM [4]: 1100 and 966
MFI at 3 nM [4]: 900 and 1070
MFI at 10 nM [4]: 1950 and 1960
MFI at 30 nM [4]: 2160 and 2640
MFI at 100 nM [4]: 6090 and 6880
MFI at 300 nM [4]: 7340 and 7420
MFI at 1000 nM [4]: 7290 and 7250
MFI at 3000 nM [4]: 7330 and 6680
EC50 (nM), ADCC reporter cells (CD38 [5]): 50 nM

B12: I-27 (peptide)
peptide 1: ARXYHDGVLXXDC
peptide 2: DCAWHLGELVWCT
modifications: not fully specified; Cys2-Cys12 disulfide; N-terminus extended by D-Glu(side chain amide of 12-aminododecanoic acid)-PEG6-; X3 and X11 = Ahp ((S)-2-aminoheptanoic acid), X10 = Bph (4-biphenylylalanine); N-terminal -C(O)CH2- (from 2-bromoacetic acid) thioether-linked to S of Cys13; C-terminus carries PEG10 linker
IC50 (CD38 [2]): 6 nM
% dead cells at 1 nM [3]: 5.6% and 5.7%
% dead cells at 3 nM [3]: 8.2% and 7.7%
% dead cells at 10 nM [3]: 7.9% and 8.3%
% dead cells at 30 nM [3]: 9.4% and 10.3%
% dead cells at 100 nM [3]: 10.3% and 9.1%
EC50 (nM), killing of target cells [3]: 2.4 nM
MFI at 0.03 nM [4]: 2140 and 3880
MFI at 0.1 nM [4]: 2880 and 2430
MFI at 0.3 nM [4]: 3560 and 3190
MFI at 1 nM [4]: 3130 and 2450
MFI at 3 nM [4]: 3950 and 3970
MFI at 10 nM [4]: 3320 and 9770
MFI at 30 nM [4]: 7880 and 8230
MFI at 100 nM [4]: 11500 and 10800
MFI at 300 nM [4]: 7180 and 11100
MFI at 3000 nM [4]: 3940 and 5160
EC50 (nM), ADCC reporter cells (CD38 [5]): 3 nM

B13: I-30 (peptide)
peptide 1: AR[Ahp(2)]YHDGVL[Bip][Ahp(2)]DC-{4‑aminobutanoic acid}
peptide 2: DCAWHLGELVWCT-NH2
modifications: disulfide II:2-II:12; also: thioether at chain A 13 to a chain's N-terminus
% dead cells at 1 nM [3]: 14.3% and 14.7%
% dead cells at 3 nM [3]: 14.7% and 15.7%
% dead cells at 10 nM [3]: 14.1%
% dead cells at 30 nM [3]: 16.3% and 15.3%
% dead cells at 100 nM [3]: 17.1% and 18.1%
% dead cells at 300 nM [3]: 19% and 20.6%
% dead cells at 3000 nM [3]: 18.1% and 17.5%
EC50 (nM), killing of target cells [3]: 175 nM
EC50 (nM), ADCC reporter cells (CD38 [5]): 12 nM

ALH[NMeF]VLPAVWVC (not fully specified; printed as A L H MeF V L P A V W V C, Alanine variant at position 8) [A L H MeF V L P A V W V C]
Binding Assay (ELISA signal) (CD38 [1]): 0.09
